doi:10.1101/852095 (bioRxiv, 2019)

Target: recombinant NPM1 (Nucleophosmin), probe of the protein array (human, UniProt P06748 1-294)
Assay: peptide or protein array

Sequence of recombinant NPM1 (Nucleophosmin), probe of the protein array (P06748 whole entry): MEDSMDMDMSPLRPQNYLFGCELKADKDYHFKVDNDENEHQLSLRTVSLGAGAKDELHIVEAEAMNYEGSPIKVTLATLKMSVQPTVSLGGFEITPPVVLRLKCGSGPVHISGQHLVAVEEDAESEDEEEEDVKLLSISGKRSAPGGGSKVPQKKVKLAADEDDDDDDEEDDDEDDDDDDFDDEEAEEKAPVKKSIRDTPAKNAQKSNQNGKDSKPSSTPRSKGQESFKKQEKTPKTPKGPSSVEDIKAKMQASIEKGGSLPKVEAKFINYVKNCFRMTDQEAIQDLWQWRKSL

B1: GTF2E2 (natural protein, human, UniProt P29084 1-291, looked up)
chain: MDPSLLRERELFKKRALSTPVVEKRSASSESSSSSSKKKKTKVEHGGSSGSKQNSDHSNGSFNLKALSGSSGYKFGVLAKIVNYMKTRHQRGDTHPLTLDEILDETQHLDIGLKQKQWLMTEALVNNPKIEVIDGKYAFKPKYNVRDKKALLRLLDQHDQRGLGGILLEDIEEALPNSQKAVKALGDQILFVNRPDKKKILFFNDKSCQFSVDEEFQKLWRSVTVDSMDEEKIEEYLKRQGISSMQESGPKKVAPIQRRKKPASQKKRRFKTHNEHLAGVLKDYSDITSSK
B1: binds.

B2: TAF9 (natural protein, human, UniProt Q16594 1-264, looked up)
chain: MESGKTASPKSMPKDAQMMAQILKDMGITEYEPRVINQMLEFAFRYVTTILDDAKIYSSHAKKATVDADDVRLAIQCRADQSFTSPPPRDFLLDIARQRNQTPLPLIKPYSGPRLPPDRYCLTAPNYRLKSLQKKASTSAGRITVPRLSVGSVTSRPSTPTLGTPTPQTMSVSTKVGTPMSLTGQRFTVQMPTSQSPAVKASIPATSAVQNVLINPSLIGSKNILITTNMMSSQNTANESSNALKRKREDDDDDDDDDDDYDNL
B2: binds.

B3: MED11 (natural protein, human, UniProt Q9P086 1-117, looked up)
chain: MATYSLANERLRALEDIEREIGAILQNAGTVILELSKEKTNERLLDRQAAAFTASVQHVEAELSAQIRYLTQVATGQPHEGSSYSSRKDCQMALKRVDYARLKLSDVARTCEQMLEN
B3: binds.

B4: MED31 (natural protein, human, UniProt Q9Y3C7 1-131, looked up)
chain: MAAAVAMETDDAGNRLRFQLELEFVQCLANPNYLNFLAQRGYFKDKAFVNYLKYLLYWKDPEYAKYLKYPQCLHMLELLQYEHFRKELVNAQCAKFIDEQQILHWQHYSRKRMRLQQALAEQQQQNNTSGK
B4: binds.

B5: GTF2A2 (natural protein, human, UniProt P52657 1-109, looked up)
chain: MAYQLYRNTTLGNSLQESLDELIQSQQITPQLALQVLLQFDKAINAALAQRVRNRVNFRGSLNTYRFCDNVWTFVLNDVEFREVTELIKVDKVKIVACDGKNTGSNTTE
B5: binds.
